Assay results as given in patent US20210169984A1, “SENSITIZING CANCER TO DEATH RECEPTOR AGONISTS WITH KINASE INHIBITORS” (The Johns Hopkins University, priority 2016, published 2021).

How the values were obtained:
[1] = in vivo; cited from earlier work
cancer patients = conditions: cited from earlier work
[2] = mouse, in vivo; cited from earlier work
[3] = system: TRAIL-resistant cancer cells (HT29, MDA-MB-231, LNCAP, DU145, PC3, A549); experiment: Cell death after TRAIL / TRAILPEG alone in various cancer cells (FIG. 2A); format: cell-based, human; conditions: TRAIL 1 μg/mL for 24 hours
Description: Quantified cell death data after TRAIL (1 μg/mL) treatment for 24 hours in various cancer cell types are shown. Human tumor cell lines include: colon (HT-29, SW620, HCT116), prostate (PC3), breast (MDA-MD-231, MCF-7), lung (A549). HCT116 represents a TRAIL-sensitive colorectal tumor for comparison. HEK293T is a normal human kidney cell line.
A library of KIs was screened for TRAIL sensitization in various TRAIL-resistant cancer cells, including: HT29 (CRC), MDA-MB-231 (breast), LNCAP (prostate), DU145 (prostate), PC3 (prostate) and A549 (lung). […] The 355 KIs comprised of compounds targeting diverse kinases, including multi kinases, RTK (receptor kinase tyrosine), PI3K (phosphinistide 3-kinase), aurora kinases, including […] (mitogen-activated protein kinase). […] The interaction between KIs and TRAIL had been previously explored in vitro with the tyrosine KI sorafenib, a drug similar to regorafenib. However, such studies were mostly performed on cellular levels and not in in vivo models, combined with systemically administered recombinant TRAIL. Although a similar structure, regorafenib was newly approved in 2012. The interactions between the three other selected KIs and TRAIL have not been previously reported, in vitro or in vivo.

Substance	half-life [1] [min]	therapeutic benefit (cancer patients; cancer patients, monotherapy studies)	anticancer activity (cancer patients; combined with chemotherapy, lung and colon cancer patients)	tolerability (cancer patients; human, in vivo)	circulating half-life [2] [min]	TRAIL-induced apoptosis (cell death) by TRAIL [3]
dulanermin: recombinant TRAIL, native-type, short-acting	5	failed to demonstrate a robust therapeutic benefit	did not reveal improved anticancer activity	broad tolerability	–	–
TRAIL: Tumor necrosis factor (TNF)-related apoptosis-inducing ligand, member of the TNF family	–	–	–	–	66	resistance to TRAIL-induced apoptosis
